Data from article PMC10079162 (Nature Communications, 2023).

target: SARS CoV-2 RBD (SARS-CoV-2, strain  …, UniProt P0DTC2); assay: not given; settings: not given

| Binder | binding result |
| --- | --- |
| CR3022 M40P S56G Q67R; T59K (output_8) (antibody, V domains shown) VH: QMQLVQSGTEVKKPGESLKISCKGSGYGFITYWIGWVRQPPGKGLEWMGIIYPGDGETRYSPSFQGRVTISADKSINTAYLQWSSLKASDTAIYYCAGGSGISTPMDVWGQGTTVTVVS VL: not shown | binds |

target: T1, human serum albumin (Homo sapiens, UniProt P02768); assay: BLI; format and conditions not told in the main text (methods are in the Supplementary Materials); settings: both partners purified
T1 construct: also called HSA

| Binder | binding result |
| --- | --- |
| Nb.b201 WT (VHH, source: HEK293 cells; obtained at high purity) VHH: QVQLQESGGGLVQAGGSLRLSCAASGYISDAYYMGWYRQAPGKEREFVATITHGTNTYYADSVKGRFTISRDNAKNTVYLQMNSLKPEDTAVYYCAVLETRSYSFRYWGQGTQVTVSS | binds |
| Nb.b201 A31D T55D (VHH, source: HEK293 cells; obtained at high purity) VHH: QVQLQESGGGLVQAGGSLRLSCAASGYISDDYYMGWYRQAPGKEREFVATITHGDNTYYADSVKGRFTISRDNAKNTVYLQMNSLKPEDTAVYYCAVLETRSYSFRYWGQGTQVTVSS | binds |
| Nb.b201 H53P T55G (VHH, source: HEK293 cells; obtained at high purity) VHH: QVQLQESGGGLVQAGGSLRLSCAASGYISDAYYMGWYRQAPGKEREFVATITPGGNTYYADSVKGRFTISRDNAKNTVYLQMNSLKPEDTAVYYCAVLETRSYSFRYWGQGTQVTVSS | binds |
| Nb.b201 H53P (VHH, source: HEK293 cells; obtained at high purity) VHH: QVQLQESGGGLVQAGGSLRLSCAASGYISDAYYMGWYRQAPGKEREFVATITPGTNTYYADSVKGRFTISRDNAKNTVYLQMNSLKPEDTAVYYCAVLETRSYSFRYWGQGTQVTVSS | binds |
| Nb.b201 H53R (VHH, source: HEK293 cells; obtained at high purity) VHH: QVQLQESGGGLVQAGGSLRLSCAASGYISDAYYMGWYRQAPGKEREFVATITRGTNTYYADSVKGRFTISRDNAKNTVYLQMNSLKPEDTAVYYCAVLETRSYSFRYWGQGTQVTVSS | binds |
| Nb.b201 A31D (VHH, source: HEK293 cells; obtained at high purity) VHH: QVQLQESGGGLVQAGGSLRLSCAASGYISDDYYMGWYRQAPGKEREFVATITHGTNTYYADSVKGRFTISRDNAKNTVYLQMNSLKPEDTAVYYCAVLETRSYSFRYWGQGTQVTVSS | binds |
| Nb.b201 T55D (VHH, source: HEK293 cells; obtained at high purity) VHH: QVQLQESGGGLVQAGGSLRLSCAASGYISDAYYMGWYRQAPGKEREFVATITHGDNTYYADSVKGRFTISRDNAKNTVYLQMNSLKPEDTAVYYCAVLETRSYSFRYWGQGTQVTVSS | binds |
| Nb.b201 T55G (VHH, source: HEK293 cells; obtained at high purity) VHH: QVQLQESGGGLVQAGGSLRLSCAASGYISDAYYMGWYRQAPGKEREFVATITHGGNTYYADSVKGRFTISRDNAKNTVYLQMNSLKPEDTAVYYCAVLETRSYSFRYWGQGTQVTVSS | binds |
| Nb.b201 A31D T55G (VHH, source: HEK293 cells; obtained at high purity) VHH: QVQLQESGGGLVQAGGSLRLSCAASGYISDDYYMGWYRQAPGKEREFVATITHGGNTYYADSVKGRFTISRDNAKNTVYLQMNSLKPEDTAVYYCAVLETRSYSFRYWGQGTQVTVSS | binds |
